Results: the supplement of paper PMC9170038

Test system: MS2 coat protein
Assay: apparent KD of MS2 coat protein; designed switch direction (-1 OFF switch, 1 ON switch): -1; higher = weaker reporter binding
How it was run: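 The reported apparent KD is a per-design median over clusters, from curve fits of normalised cluster fluorescence. Protein titrations used SNAP-549-labelled MS2 coat protein, doubled from 0.7 or 1.5 nM to 3 µM, in Tris-HCl pH 7.5 buffer with KCl, MgCl2, BSA, DTT, tRNA and Tween-20, with no input, 200 uM small-molecule ligand, or an oligonucleotide input. The RNA switches were transcribed on Illumina chips by stalled E. coli RNA polymerase.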

[1] = Eterna round: R95, input ligand: microRNA oligo, concentration not stated
[2] = input ligand: microRNA oligo, concentration not stated
[3] = Eterna round: R95, input ligand: FMN 200 uM
[4] = Eterna round: R95, input ligand: none

Sequence | apparent KD of MS2 coat protein (input ligand: FMN 200 uM) [nM] | apparent KD of MS2 coat protein (input ligand: none) [nM] | apparent KD of MS2 coat protein [1] [nM] | also measured
CGGCGACAUGAGGAUCACCCAUGUGAGGAUAUGACGGGAAAAGCGUGAGCAGUUUGUAUCAGAAGGCGGGUAGG [salish99_ex1_r4_080] (Eterna round: R97, puzzle: Exclusion 1) | 37.2 | 33.6 | – | –
AAUAGCUGAGGAUAUACAUGAGGAUCACCCAUGUAUUAGUAGGCUGGGAAUAAAUCGUGUAGAAGGCAGGAUGA [Ceerge] (puzzle: Exclusion 3) | – | – | 16.7 | –
GGCAUCAUCUGGUCCUGAUACAUGAGGAUCACCCAUGUUCUACUGUAGGUCGUAAGCAGCUUACCCUCUUAGGCACA [JR_Sensorv2_tov_Sub1249] (Eterna round: R96, puzzle: Sensor v2, turn-off variant) | 380 | 308 | – | apparent KD of MS2 coat protein [2]: 227 nM
GGGAACGUAGGAUAUACAUGAGGAUCACCCAUGUGAGGAAGGAGUAGGAAGCGUGGAAGUAGAAGGACGGAGAG [JR_Exclu3_Sub074] (puzzle: Exclusion 3) | – | – | 31.5 | apparent KD of MS2 coat protein [3]: 40.6 nM; apparent KD of MS2 coat protein [4]: 46.4 nM
GACCCUAGGGUCAGACCCACAAGCUUUUUGCUCGUUUUAACAUGAGGAUCACCCAUGUCUAGUGGAUCUGAUCGGGC [Geores] (puzzle: Sensor v3, turn-off variant 2) | – | – | 76.4 | apparent KD of MS2 coat protein [3]: 18.4 nM; apparent KD of MS2 coat protein [4]: 17.2 nM
UAAGAAGGUGUUAGGAUAUGCAGAGCAGGGCUAAGGCAGAAGGGACAUGAGGAUCACCCAUGUGCUACGGGUGC [Enrainbera] (puzzle: Brourd's mod of Exclusion 4) | – | – | 37.2 | apparent KD of MS2 coat protein [3]: 51.2 nM; apparent KD of MS2 coat protein [4]: 35.9 nM
UUUUAACAUGAGGAUCACCCAUGUGAGGAUAUCGAAAUUUAUAUUAAUAUUUAUUAAACGAGAAGGCACAUUUU [JMF 59] (puzzle: Exclusion 1) | – | – | 82 | –
UUUAUUAAUUAAUAUAAUAAGAUCACAUGAGGAUCACCCAUGUAGGAUAUCAGCUCGUGUAGAGCUGAGAAGGACAUAAUUAUA [ExNG3/1-B3] (Eterna round: R96, puzzle: Exclusion NG 3) | 108 | 34.3 | – | apparent KD of MS2 coat protein [2]: 27 nM
GGGUGCAGGCUAAGAUCCUACAUGAGGAUCACCCAUGUGGUCCGGUGACGUGAGUCACCGGACUUAGCUCGUCUUGU [salish99_S_TOV1_R5_006] (Eterna round: R97, puzzle: Sensor, turn-off variant 1) | 133 | 142 | – | –
GUCUUACAUGAGGAUCACCCAUGUGAGGAUAUGGAUUCGCUGGCCGUAGCCAGUGGAUCCAGAAGGCGCGUGAU [JL-ex1-4.20] (Eterna round: R97, puzzle: Exclusion 1) | 67 | 62.5 | – | –
GCUUGUAGAGGAUAUACAAGGGCCUUAGCGAAUAACACCGCACAUGAGGAUCACCCAUGUAGAAGGCUACCACC [Tezausesti] (puzzle: Exclusion 2) | – | – | 15.2 | –
GGCAUGUAAGGAUAUGCCACGCAGGCCUUUGGCCUGCGUAAGCAGAAGGUACAUGAGGAUCACCCAUGUGAUAA [jl-ex4-4.57 ViennaUCT mod] (Eterna round: R97, puzzle: Exclusion 4) | 129 | 727 | – | –
AGCUGUGGCCGAGGAUAUCACGAACCAUGGAAAACCAUGGAACUCCUACAUGAGGAUCACCCAUGUGAGAAGGCGGUCUCAGCA [Eli eng2 - 020] (Eterna round: R96, puzzle: Exclusion NG 2) | 109 | 52.1 | – | apparent KD of MS2 coat protein [2]: 33.4 nM
AAACAGGGAGGAUAUACAUAGAUCCUCUAACCUAAUAGGUCACAUGAGGAUCACCCAUGUAGAAGGCCCUUAGG [Biinbebi] (puzzle: Exclusion 2) | – | – | 14.3 | –
AUCGUGUCAGGAUAUUGAAGUUCCGGGCAGUCCACGGAGCUCGAGAAGGGACAUGAGGAUCACCCAUGUCUCAU [Eternabot (L1) Solution 84] (Eterna round: R97, puzzle: Exclusion 4) | 21.4 | 18.6 | – | –
AGUGUGGAGACAGGAUAUGAGAAUAGAUAGAAAUCAGAAGGGUCACAUGAGGAUCACCCAUGUAAAGUCUUGAGGAUGAGUGAU [Prohibition 2 - Jieux - Exclusion NG 1] (Eterna round: R96, puzzle: Exclusion NG 1) | 263 | 88.8 | – | apparent KD of MS2 coat protein [2]: 63.9 nM
CGAUGUUGUGUCAGGAUAUGCGUUGCGAAAGCAAUGUAGAAGGGACAUGAGGAUCACCCAUGUUCUAACCAUCG [Omei A 9] (puzzle: Brourd's mod of Exclusion 4) | – | – | 11.2 | –
CCGCUAAUAGGAUAUACAUGAGGAUCACCCAUGUCACUCUUCAUUGGUGUCUCUUCAAGUAGAAGGGUUGCUCA [Atisdi] (puzzle: Exclusion 3) | – | – | 28.4 | –

Sequence | apparent KD of MS2 coat protein (input ligand: FMN 200 uM) [nM] | apparent KD of MS2 coat protein (input ligand: none) [nM] | apparent KD of MS2 coat protein [1] [nM] | also measured
CGUCCACUUGAGGAUCACCCAAGUUAGGAUAUCUCCCAGCUCGCAUGUGCGGUUGGUCAGAGAAGGAACCAGGG [Ravereed] (Eterna round: R97, puzzle: Exclusion 1) | 49.5 | 29 | – | –
AGUAACAGAGGAUAUACUGUUUUAUGUGUUUAUUAUUUUAAACAUGAGGAUCACCCAUGUAGAAGGCUGAAUAA [JMF 82] (puzzle: Exclusion 2) | – | – | 40.3 | –
UAUUAAGCAAGCAGAUCCCACAUGAGGAUCACCCAUGUGCUCGUCUUAUAAGGUACUGUGACAAAAGUCACGGUACC [Mat - Sensor, turn-off var - Eli Mod - D74] (Eterna round: R97, puzzle: Sensor, turn-off variant 1) | 121 | 135 | – | –
CAUGGAACGUAGGAUAUCUCGCAGCCCGACUGCAGAGAAGGACGUACAUGAGGAUCACCCAUGUAUGAUCCAAA [Vexeoren] (puzzle: Exclusion 6) | – | – | 18.1 | apparent KD of MS2 coat protein [3]: 29.2 nM; apparent KD of MS2 coat protein [4]: 23.3 nM
CUCAUGCCUGAGGAUAUGCUGUACAAAAGUACUGCAGAAGGCGGGACAUGAGGAUCACCCAUGUGGCGAAAGCC [Omei Ex G8] (Eterna round: R97, puzzle: Exclusion 6) | 78.7 | 519 | – | –
UACAUGAGGAUCACCCAUGUUUUGUCGUGUAUGGUAUUUAUCUAGGAUAUCAUAUUAUUUAUUUAUGAGAAGGAGAAUAUUAAU [JMF's solution 95] (Eterna round: R96, puzzle: Exclusion NG 3) | 45.8 | 26.9 | – | apparent KD of MS2 coat protein [2]: 27.1 nM
GAUUAUGCGAGCUUUAGGGACAUGAGGAUCACCCAUGUUCGUCUUAUUGGUCUAGGUGCACUGACAUACCUAAAUCU [JMF 91] (puzzle: Sensor v3, turn-off variant 1) | – | – | 34.9 | apparent KD of MS2 coat protein [3]: 20.3 nM; apparent KD of MS2 coat protein [4]: 20.5 nM
GAACUGAGGCUUUGCUUUAGUCGUACAUGAGGAUCACCCAUGUAGGAUAUGGUAGGCUUUGCUUACCAGAAGGACAGAGUGAUC [JL EXNG3 1.21] (Eterna round: R96, puzzle: Exclusion NG 3) | 52.9 | 195 | – | apparent KD of MS2 coat protein [2]: 192 nM
UUUUAACAUGAGGAUCACCCAUGUGAGGAUAUCGAAUUUUAUAUUAAUAUUAAUAAAACGAGAAGGCACAUUUU [JMF 8] (puzzle: Exclusion 1) | – | – | 49.6 | apparent KD of MS2 coat protein [3]: 60.8 nM; apparent KD of MS2 coat protein [4]: 49.6 nM
AAUUUAAUUAACAAGCUUUACAUGAGGAUCACCCAUGUGAUCAUGCUCGUCUUAGGUACAGGCUUCGGCCUGUACCA [Stov1/6-B1] (Eterna round: R97, puzzle: Sensor, turn-off variant 1) | 49.7 | 55.5 | – | –
GGAUGAGGAGUGAGGAUAUCGUGUUCGAAAGAACGUGAGAAGGCACAUGAGGAUCACCCAUGUGAUCCUCAUCG [Omei Ex4B A22] (Eterna round: R97, puzzle: Brourd's mod of Exclusion 4) | 365 | 59.6 | – | –
CUGAUGUGAGGAUAUGUGAUCUGCCUUCUAUGUAGAUGAUCACAGAAGGCACAUGAGGAUCACCCAUGUAGAUC [Ex4 - 3 - 26] (puzzle: Exclusion 4) | – | – | 69.7 | –
GAUAAGGUAGGAUAUACGAAGAAAGAGGGUAGUAAUAAUACACAUGAGGAUCACCCAUGUAGAAGGACCAAGAG [Mat - Exclusion 2 - Mod of my Tesla design - D44] (puzzle: Exclusion 2) | – | – | 23 | apparent KD of MS2 coat protein [3]: 38.7 nM; apparent KD of MS2 coat protein [4]: 22.1 nM
AGAUAGUCAGGAUAUUAGUAAUAAAAGGAUAAUAAUAUUACUGAGAAGGGACAUGAGGAUCACCCAUGUAAUAU [JR_Ex4_Sub061] (Eterna round: R97, puzzle: Exclusion 4) | 44.5 | 27.5 | – | –
UUGAUGUCAUCAGGAUAUAGUAUUUAAGACAUAUAUUUUUUCAAACAUGAGGAUCACCCAUGUCGCUAGAAGGGAUUAUAGAUU [JR_ExcNG2_Sub082] (Eterna round: R96, puzzle: Exclusion NG 2) | – | – | – | apparent KD of MS2 coat protein [2]: 29.6 nM
GUCGGGCAAGGAUAUGUAGCACUCUACAUGAGGAUCACCCAUGUGAGCCUGCAUGGUGCGACAGAAGGUGCAAAAG [Enencear] (Eterna round: R97, puzzle: Exclusion 5) | 330 | 361 | – | –
UACUACGCAGGAUAUACAUGAGGAUCACCCAUGUGUCUGCGAUAGGCACGUGAAAUCCGUAGAAGGGUGUAGAU [Exclusion 3 - Oddities v.2] (puzzle: Exclusion 3) | – | – | 35.9 | –
CCGGAAAUGCAGGAUAUCGUAUCGGAUACGAUACGAGAAGGGUAUACAUGAGGAUCACCCAUGUGUCCUACCGG [Fiskers Ex 6 - 49] (puzzle: Exclusion 6) | – | – | 18.3 | –
